# Measured values taken from the supplement of paper PMC6755084.
# B1: F1*; the commonest letter at each place (parent)
# chain: GAGACCGCAACTGAAAAGTTGTTATCACTTGTCGTAAGACACTTTGGATGGGTTGAAGTTCTGCACGTAGAAGCAAAAGGC
# Variants of: B1
# Assay: fraction ligated after 30 min (ligated reads / total reads); higher = more ligase activity
# Details: with F1*sub RNA substrate (template-directed ligation), 42 °C
# How it was run: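 Ligase ribozyme variants were made from oligo-pool templates by PCR amplification, T7 transcription and gel purification. After gel separation, ligated and unligated bands were reverse transcribed with barcoded primers and sequenced on a MiSeq, with core bases filtered at quality ≥20. The fraction ligated for each variant was the number of ligated reads divided by total reads.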
row,Variant,fraction ligated
1,G31T T45G,0.0586
2,G31C T35A,0.796
3,G31C T35G,0.8
4,G31C T35C,0.769
5,T32C T45A,0.726
6,T32C T45G,0.109
7,T32C T45C,0.217
8,G31T A39T,0.792
9,G31T A39G,0.754
10,G31T A39C,0.769
11,G31T G38C,0.78
12,G31T G38T,0.801
13,G31T G38A,0.802
14,T32A G47T,0.104
15,T32A G47A,0.597
16,T32A G47C,0.102
17,T32A A37T,0.82
18,T32A A37C,0.849
19,T32A A37G,0.838
20,T32C A39C,0.772
21,T32C A39G,0.852
22,T32C A39T,0.778
23,T32G T44A,0.807
24,T32G T44C,0.795

row,Variant,fraction ligated
1,T32G T44G,0.821
2,G31T,0.793
3,G31C,0.79
4,T32C C40T,0.786
5,T32C C40G,0.743
6,T32C C40A,0.771
7,T32C G55T,0.75
8,T32C G55A,0.771
9,T32C G55C,0.664
10,G31T A36T,0.785
11,G31T A36G,0.798
12,G31T A36C,0.769
13,T32G C40G,0.813
14,T32G C40A,0.825
15,T32G C40T,0.836
16,G31C G50C,0.0327
17,G31C G50A,0.057
18,G31C G50T,0.108
19,T32G T43G,0.792
20,T32G T43C,0.81
21,T32G T43A,0.812
22,T32A C42G,0.861
23,T32A C42A,0.843
24,T32A C42T,0.845

row,Variant,fraction ligated
1,T32G A41G,0.754
2,T32G A41T,0.826
3,T32G A41C,0.794
4,G31C G46T,0.784
5,G31C G46A,0.797
6,G31C G46C,0.732
7,G31T G34A,0.775
8,G31T G34T,0.793
9,G31T G34C,0.771
10,T32A G55C,0.562
11,T32A G55A,0.817
12,T32A G55T,0.826
13,G31C T44G,0.781
14,G31C T44A,0.775
15,G31C T44C,0.792
16,T32G T49G,0.669
17,T32G T49C,0.246
18,T32G T49A,0.56
19,T32G T35C,0.802
20,T32G T35G,0.831
21,T32G T35A,0.814
22,T32C A36T,0.803
23,T32C A36G,0.786
24,T32C A36C,0.795

row,Variant,fraction ligated
1,G31T C42G,0.809
2,G31T C42T,0.822
3,G31T C42A,0.809
4,T32A A39T,0.827
5,T32A A39C,0.837
6,T32A A39G,0.832
7,G31C G47A,0.489
8,G31C G47C,0.0426
9,G31C G47T,0.0589
10,G31A T49C,0.136
11,G31A T49G,0.229
12,G31A T49A,0.214
13,G31T A48G,0.49
14,G31T A48T,0.0299
15,G31T A48C,0.292
16,T32G G46C,0.716
17,T32G G46A,0.782
18,T32G G46T,0.647
19,T32A G34A,0.809
20,T32A G34C,0.809
21,T32A G34T,0.823
22,T32G A48G,0.75
23,T32G A48C,0.401
24,T32G A48T,0.143

row,Variant,fraction ligated
1,G31C C33T,0.777
2,G31C C33A,0.798
3,G31C C33G,0.794
4,G31T A41G,0.761
5,G31T A41T,0.772
6,G31T A41C,0.586
7,T32C G34C,0.772
8,T32C G34T,0.759
9,T32C G34A,0.796
10,G31T T44C,0.782
11,G31T T44G,0.764
12,G31T T44A,0.768
13,T32G A57G,0.844
14,T32G A57C,0.82
15,T32G A57T,0.814
16,T32G C42A,0.845
17,T32G C42T,0.846
18,T32G C42G,0.837
19,T32C T43A,0.779
20,T32C T43C,0.782
21,T32C T43G,0.729
22,T32C T49A,0.512
23,T32C T49G,0.647
24,T32C T49C,0.193

row,Variant,fraction ligated
1,T32C G38A,0.794
2,T32C G38T,0.768
3,T32C G38C,0.777
4,T32A A36C,0.815
5,T32A A36T,0.852
6,T32A A36G,0.794
7,G31C T43G,0.761
8,G31C T43C,0.811
9,G31C T43A,0.807
10,G31C A39G,0.777
11,G31C A39C,0.779
12,G31C A39T,0.778
13,T32A A41G,0.808
14,T32A A41T,0.825
15,T32A A41C,0.8
16,G31T T32A,0.835
17,G31T T32C,0.816
18,G31T T32G,0.826
19,G31C C40T,0.791
20,G31C C40A,0.793
21,G31C C40G,0.796
22,T32A A48C,0.727
23,T32A A48G,0.749
24,T32A A48T,0.0494

row,Variant,fraction ligated
1,T32A T45C,0.358
2,T32A T45G,0.0954
3,T32A T45A,0.763
4,G31T T49A,0.146
5,G31T T49C,0.0332
6,G31T T49G,0.19
7,G31T A57T,0.78
8,G31T A57G,0.819
9,G31T A57C,0.789
10,G31A T44G,0.819
11,G31A T44C,0.801
12,T32A T44C,0.82
13,T32A T44A,0.819
14,T32A T44G,0.814
15,G31T C40G,0.83
16,G31T C40T,0.829
17,G31T C40A,0.827
18,G31T A56T,0.755
19,G31T A56G,0.679
20,G31T A56C,0.221
21,T32G A56C,0.743
22,T32G A56T,0.785
23,T32G A56G,0.799
